Assay results: patent publication US20100120068A1 (PHARMACOME, published 2010)

Target: T1, human α1A-adrenergic receptor (human, UniProt P35348 1-466)
T1 construct: Expressed in CHO-K1 cells either alone (α1A cells) or together with CRELD1α (α1L cells); also called ADRA1A; α1A-subtype
T1 sequence: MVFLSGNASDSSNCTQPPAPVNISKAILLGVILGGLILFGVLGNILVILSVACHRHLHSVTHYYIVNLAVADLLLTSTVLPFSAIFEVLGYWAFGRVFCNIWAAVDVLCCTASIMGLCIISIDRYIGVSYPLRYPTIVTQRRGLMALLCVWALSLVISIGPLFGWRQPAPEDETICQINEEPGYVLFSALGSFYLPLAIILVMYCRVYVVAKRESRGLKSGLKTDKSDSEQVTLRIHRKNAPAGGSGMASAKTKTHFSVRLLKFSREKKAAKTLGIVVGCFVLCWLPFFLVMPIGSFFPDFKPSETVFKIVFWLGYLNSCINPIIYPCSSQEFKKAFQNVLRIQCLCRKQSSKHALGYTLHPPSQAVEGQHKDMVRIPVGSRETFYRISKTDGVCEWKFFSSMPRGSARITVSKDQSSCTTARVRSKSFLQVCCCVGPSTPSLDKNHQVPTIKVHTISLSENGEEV
Experiment: method not described; told in the description only

B1: CRELD (cysteine-rich with EGF-like domains) 1α protein (other)
chain: QPSPPPQSSPPPQPHPCHTCRGLVDSFNKGLERTIRDNFGGGNTAWEEENLSKYKDSETRLVEVLEGVCSKSDFECHRLLELSEELVESWWFHKQQEAPDLFQWLCSDSLKLCCPAGTFGPSCLPCPGGTERPCGGYGQCEGEGTRGGSGHCDCQAGYGGEACGQCGLGYFEAERNASHLVCSACFGPCARCSGPEESNCLQCKKGWALHHLKCVDIDECGTEGANCGADQFCVNTEGSYECRDCAKACLGCMGAGPGRCKKCSPGYQQVGSKCLDVDECETEVCPGENKQCENTEGGYRCICAEGYKQMEGICVKEQIPESAGFFSEMTEDELVVLQQMFFGIIICALATLAAKGDLVFTAIFIGAVAAMTGYWLSERSDRVLEGFIKGR
notes: The whole coding region was used; No signal peptide limits are stated; also called CRELD1α; CREDL1α
- binding result: binds
